These results are taken from patent US20250257126A1 (CAMBRIDGE ENTERPRISE, published 2025).

For test [1], the target named is T1, human LGR5-eGFP transgene (human, UniProt O75473 22-907).
T1 construct: Tested on live or fixed cells and as cell lysates on western blots; also called hLGR5-eGFP; LGR5-GFP
T1 sequence: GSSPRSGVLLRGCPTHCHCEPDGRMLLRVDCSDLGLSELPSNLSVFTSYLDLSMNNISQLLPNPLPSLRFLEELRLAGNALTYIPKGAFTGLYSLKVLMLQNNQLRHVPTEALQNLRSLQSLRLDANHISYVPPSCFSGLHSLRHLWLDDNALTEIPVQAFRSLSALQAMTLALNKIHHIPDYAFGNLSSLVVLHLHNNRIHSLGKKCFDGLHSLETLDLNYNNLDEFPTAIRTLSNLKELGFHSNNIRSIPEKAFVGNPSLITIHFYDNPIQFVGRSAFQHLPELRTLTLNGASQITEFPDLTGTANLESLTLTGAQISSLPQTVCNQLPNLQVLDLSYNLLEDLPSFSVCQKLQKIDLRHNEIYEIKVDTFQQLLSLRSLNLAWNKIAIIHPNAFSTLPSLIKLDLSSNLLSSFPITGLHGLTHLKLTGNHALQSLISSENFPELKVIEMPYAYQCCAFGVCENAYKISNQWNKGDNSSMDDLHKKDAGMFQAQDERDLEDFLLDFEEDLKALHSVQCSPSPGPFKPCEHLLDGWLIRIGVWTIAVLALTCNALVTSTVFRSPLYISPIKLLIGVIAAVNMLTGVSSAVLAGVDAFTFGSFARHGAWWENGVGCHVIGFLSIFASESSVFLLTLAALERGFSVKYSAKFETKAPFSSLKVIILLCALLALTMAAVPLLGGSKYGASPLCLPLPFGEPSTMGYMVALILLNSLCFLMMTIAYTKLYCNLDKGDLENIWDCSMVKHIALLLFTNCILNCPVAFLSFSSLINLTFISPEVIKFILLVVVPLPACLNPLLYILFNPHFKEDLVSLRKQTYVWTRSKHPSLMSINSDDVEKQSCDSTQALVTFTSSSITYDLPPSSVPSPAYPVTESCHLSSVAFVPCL
The test can be described thus: western blot of lysates of HEK293T cells expressing mLGR5, hLGR5 or cynoLGR5 transgenes, probed with hybridoma clone 3. (Immunoblotting shows a protein as a band on a membrane.)

The target in test [2] is T2, murine LGR5 transgene (mouse, UniProt Q9Z1P4 22-907).
T2 construct: whole, on cells; Overexpressed in HEK293T cells with N-terminal HA tag, V2 receptor tail and eGFP; also tested as lysate; also called mLGR5; mLGR5-eGFP
T2 sequence (looked up): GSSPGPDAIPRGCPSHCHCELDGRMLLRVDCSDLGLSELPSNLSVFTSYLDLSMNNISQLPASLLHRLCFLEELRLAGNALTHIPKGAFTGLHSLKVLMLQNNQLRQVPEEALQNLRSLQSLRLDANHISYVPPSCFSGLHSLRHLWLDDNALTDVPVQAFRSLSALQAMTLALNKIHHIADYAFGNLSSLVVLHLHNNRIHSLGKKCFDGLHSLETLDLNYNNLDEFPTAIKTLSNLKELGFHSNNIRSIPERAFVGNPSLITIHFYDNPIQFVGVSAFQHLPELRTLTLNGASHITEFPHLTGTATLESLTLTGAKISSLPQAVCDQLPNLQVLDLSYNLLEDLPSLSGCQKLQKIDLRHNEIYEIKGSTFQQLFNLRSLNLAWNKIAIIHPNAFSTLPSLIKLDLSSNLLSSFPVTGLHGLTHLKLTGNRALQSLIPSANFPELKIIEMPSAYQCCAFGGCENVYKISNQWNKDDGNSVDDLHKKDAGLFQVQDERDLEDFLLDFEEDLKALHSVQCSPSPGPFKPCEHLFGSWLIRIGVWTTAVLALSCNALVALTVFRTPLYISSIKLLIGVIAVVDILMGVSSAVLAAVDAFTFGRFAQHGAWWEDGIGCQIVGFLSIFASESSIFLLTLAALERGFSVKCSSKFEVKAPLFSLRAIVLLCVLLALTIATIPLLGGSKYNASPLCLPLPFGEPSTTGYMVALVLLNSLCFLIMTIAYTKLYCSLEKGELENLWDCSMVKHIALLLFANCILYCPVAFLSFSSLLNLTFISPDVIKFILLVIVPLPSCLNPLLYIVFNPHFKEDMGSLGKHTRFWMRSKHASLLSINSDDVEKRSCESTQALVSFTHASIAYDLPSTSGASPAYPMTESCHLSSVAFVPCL
Described as above.

The target of test [3] is T1, human LGR5-eGFP transgene. The test can be described thus: western blot of lysates of HEK293T cells expressing mLGR5, hLGR5 or cynoLGR5 transgenes, probed with hybridoma clone 4.
Test [4] has as its target T2, murine LGR5 transgene. The description is as above.
The target in test [5] is T1, human LGR5-eGFP transgene. The test can be described thus: western blot of lysates of HEK293T cells expressing mLGR5, hLGR5 or cynoLGR5 transgenes, probed with α-LGR5v4. The procedure: (§1) B. Indirect immune fluorescence analysis of human and murine LGR family expressing HEK293T cells using the a-LGR5v4 antibody (in red), the Alexa488-coupled Phalloidin F-actin probe alongside eGFP fluorescence imaging. In the bottom row of images, LGR5-expressing HEK293T cells were stained with a-LGR5v6. C. H&E staining of tissue sections from a-LGR5v6-ADC (top row) and a-LGR5v4-ADC (bottom row) treated mice.
(§2) Western blots of HEK293t, LoVo and NALM6 lysates was carried out with 40 μg of protein.

For test [6], the target named is T2, murine LGR5 transgene. The test is described as above. As to the method: as §1, §2
Test [7] addresses T3, RAD-displayed Fragment 1A of human LGR5 (human).
T3 construct: also called Frag1A
T3 sequence (O75473 22-37, looked up): GSSPRSGVLLRGCPTH
The test can be described thus: bio-layer interferometry (Octet), captured RAD-displayed fragment.

The target in test [8] is T4, endogenous human LGR5 of cancer cell lines (human, UniProt O75473 22-907).
T4 construct: Untagged LGR5 as expressed by human LoVo, NALM6, REH cells and CRC organoids; also called LGR5 on LoVo cells; LGR5 on NALM6 cells
T4 sequence: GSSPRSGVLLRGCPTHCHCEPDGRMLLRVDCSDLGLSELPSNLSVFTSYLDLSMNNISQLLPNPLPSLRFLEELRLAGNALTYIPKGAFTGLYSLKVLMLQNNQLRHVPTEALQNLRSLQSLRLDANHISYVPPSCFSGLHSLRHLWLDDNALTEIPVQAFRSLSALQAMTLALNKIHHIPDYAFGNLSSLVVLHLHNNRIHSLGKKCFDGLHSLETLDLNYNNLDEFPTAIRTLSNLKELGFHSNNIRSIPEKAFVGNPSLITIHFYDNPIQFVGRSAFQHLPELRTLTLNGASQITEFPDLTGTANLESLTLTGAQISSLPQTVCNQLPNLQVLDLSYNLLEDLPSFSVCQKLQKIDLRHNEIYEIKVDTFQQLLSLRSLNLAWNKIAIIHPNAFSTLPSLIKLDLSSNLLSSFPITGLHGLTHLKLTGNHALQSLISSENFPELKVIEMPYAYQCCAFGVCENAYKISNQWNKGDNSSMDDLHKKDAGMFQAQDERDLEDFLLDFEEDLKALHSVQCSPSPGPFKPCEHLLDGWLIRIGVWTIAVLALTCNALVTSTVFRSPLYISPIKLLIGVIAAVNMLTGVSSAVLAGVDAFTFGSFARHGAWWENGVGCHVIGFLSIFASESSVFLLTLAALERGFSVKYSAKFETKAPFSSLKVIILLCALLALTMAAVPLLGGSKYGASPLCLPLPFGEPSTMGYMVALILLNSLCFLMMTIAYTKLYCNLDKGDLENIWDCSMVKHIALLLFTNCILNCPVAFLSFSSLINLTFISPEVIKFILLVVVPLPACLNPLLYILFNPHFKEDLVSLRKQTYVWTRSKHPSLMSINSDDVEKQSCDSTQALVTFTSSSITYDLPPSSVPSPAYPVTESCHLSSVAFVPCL
The test can be described thus: flow cytometry of LoVo and NALM6 cells after 60 minutes with fluorescent antibodies, α-HER2 against α-LGR5. Background: A flow cytometer gives signals particle by particle.

B1: α-LGR5 clone 3 (antibody, mouse IgG1, kappa, V domains shown)
VH: QVQLQQPGAELVKPGASVKLSCKASGYTFTSYWMQWVKQRPGQGLEWIGEIDPSDSYSNYNQKFKGKATLTVDTSSSTAYMQLSSLTSEDSAVYYCARSLSGYVDYWGQGTTLTVSS
VL: DIQMTQTTSSLSASLGDRVTISCRASQDISNRLNWYQQKPDGTVKLLISYRSRLQSGVPSRFSGSGSGTDYSLTISNLEEEDIATYFCQQGNTLPPTFGGGTKLEVRR
notes: Murine monoclonal antibody from hybridoma; also called hybridoma clone 3; antibody 3
For the molecule B1, the results for the binding result (in test [1]; in the test with murine LGR5 transgene [2]) were “binds” and “no binding”, respectively.

B2: α-LGR5 clone 4 (antibody, mouse IgG2b, kappa, V domains shown)
VH: QVQLQQPGAELVKPGASVKLSCKASGYTFTDYWMQWVKQRPGQGLEWIGEIDPSDSYTNYNQKFQGKATLTVDTSSSTAYIQLSSLTSDDSAVYYCARSLSGSVDYWGQGTTLTVSS
VL: DIQMTQTTSSLSASLGDRVTISCRASQDISNRLNWYQQKPDGTVKLLISYRSRLQSGVPSRFSGSGSGTDYSLTITNLEQEDIATYFCQQGNTLPPTFGGGTKLEVRR
notes: Murine monoclonal antibody from hybridoma; also called hybridoma clone 4; antibody 4
In the case of B2, the binding result in test [3] was “binds”; with murine LGR5 transgene [4] it was “no binding”.

B3: α-LGR5 variant 4 (antibody, human IgG1, kappa, V domains shown)
VH: QVQLVQSGAEVKKPGASVKVSCKASGYTFTNYWMQWVRQAPGQGLEWIGEIDPSDSYTNYNQKFQGRVTLTVDTSTSTAYMELSSLRSEDTAVYYCARSLSGYVDYWGQGTTVTVSS
VL: EIVMTQSPATLSLSPGERATLSCRASQDISNRLNWYQQKPGQAVRLLISYRSRRHTGIPARFSGSGSGTDYTLTISSLEPEDFAVYYCQQGNSLPPTFGGGTKLEIKR
notes: Humanized antibody; also called α-LGR5v4; clone 2.4
B3: the binding result in test [5] is on record as “binds”; in the test with murine LGR5 transgene [6] it was “no binding”; in test [8], “binds”. In addition, the equilibrium dissociation constant (Kd) (as a rule, the concentration at which binding is half-saturated) in test [7] came out at 2 nM.
